Laboratory results reported in patent US20190314452A1 (YUHAN, published 2019).
Values belong to the binder of their own block, whether it stands above or below them.

Biological target: human GLP-1 receptor (human, UniProt P43220 24-463)
Assay: cell-based or functional assay

- in vitro GLP-1 activity (intracellular cAMP, EC50 compared): 2 to 3 times lower than the fusion proteins containing other GLP-1 mutant sequences
B1: DFD23 (Fc fusion)
chain: HGEGTFTSDVSSYLEGQAAKEFIAWLVKGRGEKEKEEQEERETKTPECPSHTQPLGVFLFPPKPKDTLMISRTPEVTCVVVDVSQEDPEVQFNWYVDGVEVHNAKTKPREEQFNSTYRVVSVLTVLHQDWLNGKEYKCKVSNKGLPSSIEKTISKAKGQPREPQVYTLPPSQEEMTKNQVSLTCLVKGFYPSDIAVEWESNGQPENNYKTTPPVLDSDGSFFLYSRLTVDKSRWQEGNVFSCSVMHEALHNHYTQKSLSLSLGKGGGGSGGGGSGGGGSHPIPDSSPLLQFGGQVRQRYLYTDDAQQTEAHLEIREDGTVGGAADQSPESLLQLKALKPGVIQILGVKTSRFLCQRPDGALYGSLHFDPEACSFREEIRPDGYNVYQSEAHGLPLHLPGNKSPHRDPAPRGPARFLPLPGLPPALPEPPGILAPQPPDVGSSDPLSMVTGLEAVRSPSYAS

- in vitro GLP-1 activity (intracellular cAMP, EC50 compared): ~2 times higher than DFD69, DFD112 and DFD114
B2: DFD59: GLP1(GEG)-HyFc40 (Fc fusion)
chain: HGEGTFTSDVSSYLEEQAAKEFIAWLVKGGGEKEKEEQEERETKTPECPSHTQPLGVFLFPPKPKDTLMISRTPEVTCVVVDVSQEDPEVQFNWYVDGVEVHNAKTKPREEQFNSTYRVVSVLTVLHQDWLNGKEYKCKVSNKGLPSSIEKTISKAKGQPREPQVYTLPPSQEEMTKNQVSLTCLVKGFYPSDIAVEWESNGQPENNYKTTPPVLDSDGSFFLYSRLTVDKSRWQEGNVFSCSVMHEALHNHYTQKSLSLSLGK
